Reference: patent US11306156
pKd: −log10 of the molar value. Blank lines part the entries; values can stand above or below the substance they belong to.

Key:
[1] = biological target: D3H44 light chain Q124R_T178R; assay: SMCA, LC-MS; change vs wild-type bispecific; competing light chain m27
[2] = biological target: D3H44 light chain Q124R_T178R; assay: SMCA, LC-MS of 4 co-expressed chains; competing light chain m27
[3] = biological target: D3H44 light chain Q124R_T178R; assay: SMCA: LC-MS of protein A purified product after co-expression of H1, H2, L1, L2 in CHO-3E7; competing light chain m51
[4] = biological target: Cetuximab light chain Q38E_Q124E_Q160E_T180E; assay: SMCA: H1, H2, L1, L2 co-expressed in CHO-3E7, protein A purified, LC-MS; competing light chain m14; against wild-type bispecific
[5] = biological target: tissue factor (TF) antigen (UniProt P13726); assay: SPR (ProteOn XPR36), Fab captured by His tag on anti-penta-His surface, TF injected as analyte, 1:1 fit; * = estimated from a Fab differing only in the L chain tag
[6] = biological target: tissue factor (TF) antigen (UniProt P13726); assay: SPR (ProteOn XPR36), Fab captured by His tag on anti-penta-His surface, TF injected as analyte; against wild-type D3H44 Fab; * = estimated from a Fab differing only in the L chain tag
[7] = biological target: D3H44 light chain Q124E_V133E; assay: SMCA, LC-MS; estimated change vs similar wild type (***); competing light chain m26
[8] = biological target: D3H44 light chain Q124E_V133E; assay: SMCA: LC-MS of protein A purified product after co-expression of H1, H2, L1, L2 in CHO-3E7; competing light chain m52
[9] = biological target: D3H44 light chain Q124E_V133E; assay: SMCA: 2 heavy + 2 light chains co-expressed, protein A, LC-MS; competing light chain m45
[10] = biological target: D3H44 light chain Q124E_V133E; assay: SMCA, LC-MS of 4 co-expressed chains; competing light chain m26
[11] = biological target: D3H44 light chain Q124E_V133E; assay: SMCA, LC-MS; change vs wild-type bispecific; competing light chain m42
[12] = biological target: D3H44 light chain Q124E_V133E; assay: SMCA, LC-MS of 4 co-expressed chains; competing light chain m42
[13] = biological target: D3H44 light chain Q124E_Q160E_T180E; assay: SMCA, LC-MS; change vs wild-type bispecific; competing light chain m31
[14] = biological target: D3H44 light chain Q124E_L135W_Q160E_T180E; assay: SMCA: H1, H2, L1, L2 co-expressed in CHO-3E7, protein A, LC-MS; competitor light chain m32
[15] = biological target: D3H44 light chain Q124E_Q160E_T180E; assay: SMCA, LC-MS of 4 co-expressed chains; competing light chain m48
[16] = biological target: D3H44 light chain Q124E_L135W_Q160E_T180E; assay: SMCA, LC-MS of 4 co-expressed chains; competing light chain m28
[17] = biological target: D3H44 light chain Q124E_Q160E_T180E; assay: SMCA, LC-MS of 4 co-expressed chains; competing light chain m31
[18] = biological target: D3H44 light chain Q124E_Q160E_T180E; assay: SMCA: H1, H2, L1, L2 co-expressed in CHO-3E7, protein A, LC-MS; competitor light chain m37
[19] = biological target: D3H44 light chain Q124E_Q160E_T180E; assay: SMCA, LC-MS; change vs wild-type bispecific; competing light chain m48
[20] = biological target: D3H44 light chain Q124E_L135W_Q160E_T180E; assay: SMCA, LC-MS; change vs wild-type bispecific; competing light chain m28
[21] = biological target: D3H44 light chain Q124R_T178R; assay: SMCA, LC-MS; change vs wild-type bispecific; competing light chain m30
[22] = biological target: D3H44 light chain Q124R_T178R; assay: SMCA, LC-MS of 4 co-expressed chains; competing light chain m30
[23] = biological target: D3H44 light chain Q124R_T178R; assay: SMCA: H1, H2, L1, L2 co-expressed in CHO-3E7, protein A, LC-MS; competitor light chain m34
[24] = biological target: D3H44 light chain Q124R_T178R; assay: SMCA, LC-MS of 4 co-expressed chains; competing light chain m25
[25] = biological target: D3H44 light chain Q124R_T178R; assay: SMCA, LC-MS; change vs wild-type bispecific; competing light chain m25
[26] = biological target: D3H44 light chain Q124R_T178R; assay: SMCA: H1, H2, L1, L2 co-expressed in CHO-3E7, protein A, LC-MS; competitor light chain m24

Change in % H1L1 Pairing (over all H1 species) with respect to wild type [1]: 32.4% | % H1L1 Pairing (over all H1 species) [2]: 94.3% | % H1L1 Pairing (over all H1 species) [3]: 94.3%
Substance: D3H44 heavy chain L143E_K145T_Q179E_S188L (from UniProt P0DOX5 2-448)

Change in % H2L2 Pairing (over all H2 species) with respect to wild type [4]: 0.6%
Substance: Cetuximab heavy chain Q39R_H172R_Q179K

Continued, substance first:

Substance: D3H44 H1L1 Fab heterodimer of LCCA Set # 9645 (H1 L143E_K145T_Q179E, L1 Q124K_T178R)
pKd [5]: 9.85 | change in median KD compared to wild type, -(log(KD design)-log(KD wt)) [6]: 0.05 log

Substance: D3H44 heavy chain L143R (from UniProt P0DOX5 2-448)
Change in % H1L1 Pairing (over all H1 species) with respect to wild type [7]: 43.3% | % H1L1 Pairing (over all H1 species) [8]: 100% | % H1L1 Pairing (over all H1 species) [9]: 100% | % H1L1 Pairing (over all H1 species) [10]: 100% | Change in % H1L1 Pairing (over all H1 species) with respect to wild type [11]: 59.8% | % H1L1 Pairing (over all H1 species) [12]: 97.1%

Substance: D3H44 heavy chain Q179K (from UniProt P0DOX5 2-448)
Change in % H1L1 Pairing (over all H1 species) with respect to wild type [13]: 52.5% | % H1L1 Pairing (over all H1 species) [14]: 100% | % H1L1 Pairing (over all H1 species) [15]: 100% | % H1L1 Pairing (over all H1 species) [16]: 100% | % H1L1 Pairing (over all H1 species) [17]: 100% | % H1L1 Pairing (over all H1 species) [18]: 100% | Change in % H1L1 Pairing (over all H1 species) with respect to wild type [19]: 62.7% | Change in % H1L1 Pairing (over all H1 species) with respect to wild type [20]: 38.1%

Substance: D3H44 heavy chain L143E_K145T_Q179E (from UniProt P0DOX5 2-448)
Change in % H1L1 Pairing (over all H1 species) with respect to wild type [21]: 38.1% | % H1L1 Pairing (over all H1 species) [22]: 100% | % H1L1 Pairing (over all H1 species) [23]: 100% | % H1L1 Pairing (over all H1 species) [24]: 100% | Change in % H1L1 Pairing (over all H1 species) with respect to wild type [25]: 38.1% | % H1L1 Pairing (over all H1 species) [26]: 100%
